The numbers were not newly measured in PMC3651761, which cites them from elsewhere.

One series concerns the target IGF-IR (Homo sapiens) (UniProt P08069).
The target of series [1] is Met receptor (Homo sapiens) (UniProt P08581).
Chain of UniProt P08581 (P08581 25-932): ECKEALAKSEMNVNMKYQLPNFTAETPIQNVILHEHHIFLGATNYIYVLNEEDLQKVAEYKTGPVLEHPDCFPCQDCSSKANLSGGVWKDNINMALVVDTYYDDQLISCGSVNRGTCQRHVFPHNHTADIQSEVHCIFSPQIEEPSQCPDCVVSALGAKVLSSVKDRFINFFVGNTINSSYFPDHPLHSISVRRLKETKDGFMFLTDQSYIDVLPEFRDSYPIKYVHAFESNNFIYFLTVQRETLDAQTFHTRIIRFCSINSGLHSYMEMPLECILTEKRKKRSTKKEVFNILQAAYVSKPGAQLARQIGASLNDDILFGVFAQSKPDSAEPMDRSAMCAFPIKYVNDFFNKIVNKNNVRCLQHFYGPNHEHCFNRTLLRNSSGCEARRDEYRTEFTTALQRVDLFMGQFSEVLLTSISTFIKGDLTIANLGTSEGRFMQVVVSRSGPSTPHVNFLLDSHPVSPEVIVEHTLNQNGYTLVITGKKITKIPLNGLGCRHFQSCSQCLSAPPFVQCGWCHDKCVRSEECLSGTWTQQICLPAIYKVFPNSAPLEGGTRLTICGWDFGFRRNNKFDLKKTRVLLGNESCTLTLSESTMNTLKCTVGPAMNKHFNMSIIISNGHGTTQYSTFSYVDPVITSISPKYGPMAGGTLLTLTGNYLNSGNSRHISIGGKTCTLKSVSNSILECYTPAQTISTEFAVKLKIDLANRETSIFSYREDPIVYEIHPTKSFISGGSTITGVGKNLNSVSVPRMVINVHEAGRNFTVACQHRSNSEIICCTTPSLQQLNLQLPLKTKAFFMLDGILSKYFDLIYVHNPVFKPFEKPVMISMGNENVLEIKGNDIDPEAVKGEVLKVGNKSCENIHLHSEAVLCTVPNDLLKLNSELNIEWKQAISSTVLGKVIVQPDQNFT

Chain of UniProt P08069 (P08069 31-736, chain 1 of 2): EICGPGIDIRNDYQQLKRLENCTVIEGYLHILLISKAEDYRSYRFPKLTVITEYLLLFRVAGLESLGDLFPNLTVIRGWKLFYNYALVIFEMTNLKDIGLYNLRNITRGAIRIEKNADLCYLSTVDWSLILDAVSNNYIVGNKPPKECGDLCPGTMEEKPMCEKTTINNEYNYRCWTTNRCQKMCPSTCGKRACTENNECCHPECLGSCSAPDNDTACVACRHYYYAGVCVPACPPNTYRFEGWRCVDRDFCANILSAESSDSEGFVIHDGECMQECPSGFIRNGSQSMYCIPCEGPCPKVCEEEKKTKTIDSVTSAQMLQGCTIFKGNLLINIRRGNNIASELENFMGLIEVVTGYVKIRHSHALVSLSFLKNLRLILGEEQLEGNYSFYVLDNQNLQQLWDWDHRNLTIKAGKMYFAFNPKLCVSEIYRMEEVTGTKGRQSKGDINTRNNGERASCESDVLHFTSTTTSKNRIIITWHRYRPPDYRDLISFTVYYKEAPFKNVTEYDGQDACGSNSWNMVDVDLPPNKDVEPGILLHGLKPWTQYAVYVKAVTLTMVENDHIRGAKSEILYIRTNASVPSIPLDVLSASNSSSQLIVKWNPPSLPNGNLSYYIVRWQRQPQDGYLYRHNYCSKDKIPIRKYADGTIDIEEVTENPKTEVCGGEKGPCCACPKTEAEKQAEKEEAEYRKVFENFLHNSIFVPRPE
Chain of UniProt P08069 (P08069 741-935, chain 2 of 2): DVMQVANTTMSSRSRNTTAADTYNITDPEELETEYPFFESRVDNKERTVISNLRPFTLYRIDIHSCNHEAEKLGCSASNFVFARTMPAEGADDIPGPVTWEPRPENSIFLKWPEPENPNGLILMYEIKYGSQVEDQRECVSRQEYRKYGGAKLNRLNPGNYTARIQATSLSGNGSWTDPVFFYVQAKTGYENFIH

As a reminder, the Kd is the concentration at which binding is half-saturated. For the substance Decorin (from UniProt P07585), the dissociation constant Kd is 18 nM in the series with IGF-IR (Homo sapiens) and 2 nM in series [1].
